According to patent US20240325557A1 (INNATE PHARMA, published 2024):
Substitutions are numbered along the chain they refer to.

Key:
[1] = biological target: T1, huNectin4-C1C2-V5 (C1C2 construct, lacking the Ig-like V domain) (human, UniProt Q96NY8 148-510); experiment: flow cytometry on Nectin4-C1C2-V5 sorted cells
T1 construct: Expressed on CHO cells; also called Hu-Nectin4 IgC1C2-V5; Nectin4-C1C2-V5 sorted cells
T1 sequence: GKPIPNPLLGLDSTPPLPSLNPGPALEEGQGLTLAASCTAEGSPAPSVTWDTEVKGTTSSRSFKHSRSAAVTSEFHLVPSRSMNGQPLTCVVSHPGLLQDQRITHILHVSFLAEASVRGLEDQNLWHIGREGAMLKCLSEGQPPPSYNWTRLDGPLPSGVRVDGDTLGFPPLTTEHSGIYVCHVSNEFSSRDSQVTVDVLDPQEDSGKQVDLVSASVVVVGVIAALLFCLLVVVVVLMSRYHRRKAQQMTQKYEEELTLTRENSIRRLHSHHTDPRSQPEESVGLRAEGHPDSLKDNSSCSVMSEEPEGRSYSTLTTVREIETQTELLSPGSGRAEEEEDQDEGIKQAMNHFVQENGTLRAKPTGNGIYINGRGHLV

human PVR on CHO cells = biological target: T2, human PVR on CHO cells (human, UniProt P15151 28-417); experiment: flow cytometry on CHO cells expressing human PVR
T2 construct: also called PVR (Nectin-5)
T2 sequence: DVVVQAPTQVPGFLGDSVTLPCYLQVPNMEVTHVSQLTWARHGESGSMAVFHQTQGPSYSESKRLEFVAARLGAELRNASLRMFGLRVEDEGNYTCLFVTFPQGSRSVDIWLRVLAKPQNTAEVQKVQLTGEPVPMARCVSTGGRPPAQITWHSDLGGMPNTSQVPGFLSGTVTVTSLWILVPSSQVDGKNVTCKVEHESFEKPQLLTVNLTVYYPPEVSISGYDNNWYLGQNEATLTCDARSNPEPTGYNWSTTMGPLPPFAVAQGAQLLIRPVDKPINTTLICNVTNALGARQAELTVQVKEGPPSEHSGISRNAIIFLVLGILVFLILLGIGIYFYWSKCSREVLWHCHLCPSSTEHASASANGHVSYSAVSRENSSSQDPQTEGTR
Method: (§1) Anti-Nectin-4 antibodies were tested by flow cytometry for binding to different CHO cell lines made to express respectively the human Nectin 1, Nectin 2, Nectin 3 and PVR proteins. The expression of each cell lines was controlled and validated with known respectively the anti-human Nectin1, anti-human Nectin2, anti-human Nectin3 and anti-human PVR antibodies. The mature amino acid sequence of the proteins expressed by the cells were as follows:
(§2) Nectin 1, Nectin 2, Nectin 3 and PVR proteins as in Example 12. […] Epitope mapping was carried out by assessing competition for binding to Nectin-4 by SPR as in Example 14.

[2] = biological target: T3, wild-type human Nectin-4 on the CHO huNectin4 Cl.3C8 cell line (human, UniProt Q96NY8 32-510); experiment: flow cytometry on wild-type human Nectin-4 cell line
T3 construct: also called whole Nectin-4 protein; huNectin4 CI.3C8
T3 sequence: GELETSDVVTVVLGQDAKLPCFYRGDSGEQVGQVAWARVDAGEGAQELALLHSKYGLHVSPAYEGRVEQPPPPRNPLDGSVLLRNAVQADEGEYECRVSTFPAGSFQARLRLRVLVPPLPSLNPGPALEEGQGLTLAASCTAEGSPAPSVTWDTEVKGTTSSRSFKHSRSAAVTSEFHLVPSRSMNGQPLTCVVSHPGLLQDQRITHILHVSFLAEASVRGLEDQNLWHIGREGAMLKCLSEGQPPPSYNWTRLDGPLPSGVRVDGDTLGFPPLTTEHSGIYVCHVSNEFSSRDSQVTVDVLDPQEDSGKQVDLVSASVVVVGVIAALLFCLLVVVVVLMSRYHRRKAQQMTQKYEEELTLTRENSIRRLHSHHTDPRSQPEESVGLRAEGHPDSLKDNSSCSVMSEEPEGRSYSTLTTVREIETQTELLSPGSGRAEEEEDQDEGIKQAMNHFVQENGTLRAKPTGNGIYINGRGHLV

[3] = biological target: T4, human Nectin 1 on CHO cells (human, UniProt Q15223 31-517); experiment: flow cytometry on CHO cells expressing human Nectin 1
T4 sequence: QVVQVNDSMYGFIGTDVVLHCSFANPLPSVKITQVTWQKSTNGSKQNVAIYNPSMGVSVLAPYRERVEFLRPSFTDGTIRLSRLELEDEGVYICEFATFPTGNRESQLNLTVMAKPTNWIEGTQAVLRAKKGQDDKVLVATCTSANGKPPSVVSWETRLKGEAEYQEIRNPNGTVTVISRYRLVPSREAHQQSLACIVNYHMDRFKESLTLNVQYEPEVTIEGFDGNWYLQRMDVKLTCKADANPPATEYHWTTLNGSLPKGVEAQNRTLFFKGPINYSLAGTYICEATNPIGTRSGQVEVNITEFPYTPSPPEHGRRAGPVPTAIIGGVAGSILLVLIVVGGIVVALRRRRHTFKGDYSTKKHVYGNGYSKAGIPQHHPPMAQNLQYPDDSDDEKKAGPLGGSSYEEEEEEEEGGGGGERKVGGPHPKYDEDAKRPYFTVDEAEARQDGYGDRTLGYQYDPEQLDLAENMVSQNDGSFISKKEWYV
Method: as §1, §2

[4] = biological target: T5, human Nectin 2 on CHO cells (human, UniProt Q92692 32-538); experiment: flow cytometry on CHO cells expressing human Nectin 2
T5 sequence: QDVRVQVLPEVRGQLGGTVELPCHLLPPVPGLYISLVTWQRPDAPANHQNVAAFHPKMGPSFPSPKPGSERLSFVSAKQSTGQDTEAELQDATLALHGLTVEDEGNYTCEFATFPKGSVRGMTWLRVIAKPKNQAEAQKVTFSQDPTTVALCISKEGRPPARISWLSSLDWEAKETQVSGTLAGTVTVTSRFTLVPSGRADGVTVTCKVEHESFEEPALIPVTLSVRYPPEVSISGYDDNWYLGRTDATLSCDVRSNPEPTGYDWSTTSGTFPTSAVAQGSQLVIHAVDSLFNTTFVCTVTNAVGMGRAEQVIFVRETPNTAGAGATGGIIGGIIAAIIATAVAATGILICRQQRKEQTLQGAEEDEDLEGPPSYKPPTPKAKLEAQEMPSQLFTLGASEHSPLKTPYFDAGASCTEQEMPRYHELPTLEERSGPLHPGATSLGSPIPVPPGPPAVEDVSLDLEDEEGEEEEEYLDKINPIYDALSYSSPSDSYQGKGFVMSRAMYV
Method: as §1, §2

human Nectin-4 Mutant 3 = biological target: T6, human Nectin-4 Mutant 3 (human, UniProt Q96NY8 32-510); experiment: binding to HEK-293T cells transfected with the Nectin-4 mutant
T6 construct: Expressed on transfected HEK-293T cells; also called A76S/Q77R/E78A/S91N
T6 chain: T3 sequence with A45S, Q46R, E47A, S60N

[5] = biological target: T1, huNectin4-C1C2-V5 (C1C2 construct, …); experiment: flow cytometry on huNectin4-C1C2-V5 CHO cells
Method: The characterization of the binding of the antibodies on Nectin-4 domains was performed by flow cytometry using cells made to express the wild-type human Nectin-4 protein and cells made to express a modified Nectin-4 having the Ig-like C₂ type 1 and the Ig-like C₂ type 2 domains and lacking the Ig-like V domain (the C1C2 construct). The latter protein additionally bears a V5 tag for flow cytometry cell sorting, and cells were used as Nectin4-C1C2-V5 sorted cells.

human Nectin-4 Mutant 1 = biological target: T7, human Nectin-4 Mutant 1 (human, UniProt Q96NY8 32-510); experiment: binding to HEK-293T cells transfected with the Nectin-4 mutant
T7 construct: Expressed on transfected HEK-293T cells; also called S58P/G59D/Q61A/N106D/P107A
T7 chain: T3 sequence with S27P, G28D, Q30A, N75D, P76A

[6] = biological target: T8, monomeric huNectin4-his-BirA protein (human, UniProt Q96NY8 32-349); experiment: SPR (Biacore T200), antibody captured on Protein A, monomeric huNectin4-his-BirA injected
T8 construct: also called Human Nectin4-His-BirA; huNectin4-BirA
T8 sequence: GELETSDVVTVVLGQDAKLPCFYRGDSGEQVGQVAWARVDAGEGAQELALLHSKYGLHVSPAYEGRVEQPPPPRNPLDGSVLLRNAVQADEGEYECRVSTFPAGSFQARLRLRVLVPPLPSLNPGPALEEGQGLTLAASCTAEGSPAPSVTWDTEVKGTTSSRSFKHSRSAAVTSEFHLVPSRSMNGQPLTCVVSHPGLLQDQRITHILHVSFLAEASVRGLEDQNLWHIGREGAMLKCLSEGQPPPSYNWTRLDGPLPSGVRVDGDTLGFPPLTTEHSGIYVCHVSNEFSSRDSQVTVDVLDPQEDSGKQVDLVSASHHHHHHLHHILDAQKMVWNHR
Method: Antibodies were tested for binding affinity to the wild-type human Nectin-4 protein by SPR (Surface Plasmon Resonance) methods. Measurements were performed on a Biacore T200 apparatus (Biacore GE Healthcare) at 25° C. Sensorgrams were analyzed with Biacore T100 Evaluation software. A CMR Sensor Chip with immobilized Protein A at about 600 RU was used. Anti-Nectin-4 antibodies were captured onto the Protein-A chip (antibodies diluted to 1 μg/ml in HBS-EP+1× buffer and injected over 120s at 40 μL/min). […] The chip was regenerated with NaOh 10 mM 2× for 30s at 40 μl/min. The sensorgram sets were fitted using the 1:1 kinetic binding model or two state reaction model, as a function of the profile of the curves.

B1: antibody 6C11B (antibody, human IgG1, V domains shown)
VH: EVQLQQSGPELVKPGASVKISCKTSGYTFTEYTIHWVKQNHGKSLEWIGRINPKNGDIIHNQNFMGKATLTVDKSSSTAYMELRSLTSEDSAVCYCARSGYGSSYGFAYWGQGTLVTVSA
VL: DIVMTQSPTSLVVSLGQRATISCRASQSVTTPRYSYMHWYQQKPGQPPKLLIKYASNLESGVPARFSGSGSGTDFTLNIHPVEEEDTATYYCQHSWEIPYTFGGGTKLEIK
notes: also called 6CB11; CHG1-M-4N4-6C11B
[1]
  binding result: binds
Human PVR on CHO cells
  binding result: no binding
[2]
  binding result: binds
[3]
  binding result: no binding
[4]
  binding result: no binding
Human Nectin-4 Mutant 3
  binding result: no binding

B2: antibody N41 (antibody, V domains shown)
VH: QVQLKQSGPGLVQPSQSLSITCTVSGFSLTNYGVHWVRQSPGKGLEWLGVIWSGGSTDYNAAFISRLSISKDTSKSQVFFKMNSLQADDTAIYYCARELIHAMDNWGQGTSVTVSS
VL: DIQMTQSPASLSVSVGETVTITCRASENIYSNLAWYQQKQGNSPQLLVFAATNLADGVPSRFSGSGSGTQYSLKINSLQSEDFGTYYCQHFWGTPTFGGGTKLEIK
notes: Comparator anti-Nectin-4 antibody
[5]
  binding result: no binding
Human Nectin-4 Mutant 1
  binding result: no binding
[6]
  Kd: 1.5 nM
  koff: 0.00087 s⁻¹
  kon: 580000 M⁻¹ s⁻¹
